{
  "source": "paper PMC5828407",
  "about": "(Veterinary Research, 2018)",
  "molecular_target": "GST-tagged FaeG fusion protein of F4ac (Escherichia coli, UniProt P14190 22-283)",
  "test": "ELISA; APN protein coated on plates, incubated with FaeG peptides, fusion FaeG proteins or F4 fimbriae; absorbance at 450 nm",
  "conditions": "both partners purified",
  "data": [
    {"binder": "porcine aminopeptidase N (APN), His-tagged whole protein (receptor) MAKGFYISKALGILGILLGVAAVATIIALSVVYAQEKNKNAEHVPQAPTSPTITTTAAITLDQSKPWNRYRLPTTLLPDSYNVTLRPYLTPNADGLYIFKGKSIVRLLCQEPTDVIIIHSKKLNYTTQGHMVVLRGVGDSQVPEIDRTELVELTEYLVVHLKGSLQPGHMYEMESEFQGELADDLAGFYRSEYMEGNVKKVLATTQMQSTDARKSFPCFDEPAMKATFNITLIHPNNLTALSNMPPKGSSTPLAEDPNWSVTEFETTPVMSTYLLAYIVSEFQSVNETAQNGVLIRIWARPNAIAEGHGMYALNVTGPILNFFANHYNTSYPLPKSDQIALPDFNAGAMENWGLVTYRENALLFDPQSSSISNKERVVTVIAHELAHQWFGNLVTLAWWNDLWLNEGFASYVEYLGADHAEPTWNLKDLIVPGDVYRVMAVDALASSHPLTTPAEEVNTPAQISEMFDSISYSKGASVIRMLSNFLTEDLFKEGLASYLHAFAYQNTTYLDLWEHLQKAVDAQTSIRLPDTVRAIMDRWTLQMGFPVITVDTKTGNISQKHFLLDSESNVTRSSAFDYLWIVPISSIKNGVMQDHYWLRDVSQAQNDLFKTASDDWVLLNVNVTGYFQVNYDEDNWRMIQHQLQTNLSVIPVINRAQVIYDSFNLATAHMVPVTLALDNTLFLNGEKEYMPWQAALSSLSYFSLMFDRSEVYGPMKKYLRKQVEPLFQHFETLTKNWTERPENLMDQYSEINAISTACSNGLPQCENLAKTLFDQWMSDPENNPIHPNLRSTIYCNAIAQGGQDQWDFAWGQLQQAQLVNEADKLRSALACSNEVWLLNRYLGYTLNPDLIRKQDATSTINSIASNVIGQPLAWDFVQSNWKKLFQDYGGGSFSFSNLIQGVTRRFSSEFELQQLEQFKKNNMDVGFGSGTRALEQALEKTKANIKWVKENKEVVLNWFIEHS", "values": [
      {"measurement": "binding result", "value": "binds"}
    ]}
  ]
}
